Measurements from paper PMC4450592.

Key:
[1] = target: HIS-gG3PD (full-length gG3PD, N-terminal 6xHIS-tagged) (Giardia duodenalis (isolate WB clone C6)); experiment: native gel or EMSA; 3-12% Blue Native PAGE of purified HIS-tagged recombinant proteins (1 μg by the methods, 3 μmol by the legend), silver stain or anti-HIS blot
[2] = target: HIS-gG3PD_C (C-terminal half of gG3PD, N-terminal 6xHIS-tagged) (Giardia duodenalis (isolate WB clone C6)); experiment: as above

stoichiometry N [1] | stoichiometry N [2] | Substance
2 |  | HIS-gG3PD (full-length gG3PD, N-terminal 6xHIS-tagged) (enzyme)
 | 2 | HIS-gG3PD_C (C-terminal half of gG3PD, N-terminal 6xHIS-tagged) (domain or fragment)
